This data set can be described thus: soluble on expression in E. coli; label from the status in PepcDB or PDB records.
For “MAHHHHHHMDYCEEAYNKLIEFLSENKTEKMMESSLSSALAVALCYNHRIVNMYENMKGRIFLLDISNETYVYTNQYTQLMNIAYNAKRNNIIIDVFSLNCKIQLLEQICNITNGLYIDSSIFFNVNCTDNIEDVLTQTMIFWFLPSNNTRKYFSNTYLNDDTNIAVCSCHNKQVDIAYICSCCLAIYCSEKDEKTNKERTSCFVCKTRFTKALLRNKVVSDLDFSSI”, the “soluble on expression in E. coli” value is on record as “not soluble”.

“MAHHHHHHMEAGARFPAAATPPASAGAAAVQGDAESEPDDERWSLSDGEPEAIPAKNGEPSDADVDAAMAAKGEAAELHGEGKQEEAIAKMGEALAYNPGNAMYWGMRALYHLEFNKPRAALHDANKALELNPQNVRALRVRGTVNRHLGHWEDSLKDLSAAQAIDYDDKTNETLKYVQSRATQRHKRQLARHHAEEEAAARRQEELRRQRQREAEEAAAAAEAQAAPGSMPGGLPRGFPGGMPGGMPGGMPGGMPPGMESVLQDPEIMVAMQDPEVAPKLAQMMQNPMAAMSMMNDPKVGPVMQKIMAKMMGGGGMPGGMGGMGGMGGFQGAGGMPSHRGAADGASGSTRRDDLD”: the “soluble on expression in E. coli” value is on record as “not soluble”.

Regarding “MAHHHHHHMEASAPGKVLILGSYLIVESCTPANVGISIGVNARFTTRIVKAEPTTTGASGKTTIHMRSPQFRQSFCFVANTSAPGTVAVKQTEGPGSPFIFNAVLYSVAAAQSLGSSTDGEIWVELLADNDFYSQRNYLESQGKDVNVANLRSLPPHLPLVGAISKTGLGSSAAMTTSIVACLCHHFNADGCSHEYVHRIAQIAHSVTQGKIGSGFDVYTAVYGTCAYRRFPVSRVSMMMMASAQPPSSVEVETLRRCVDMNEVWVPPESFRLPPGVKLVLGDVHQGGSCTPGMVAKIMAWRKSVADTPDNLWEQLRRNNEAYIAALRRMIDEAAAKPDVYAASMAALQQVPSLPLFRADGESMQCIVEASRFAARSRALLRDMGVAAEVKVEPVELTDLLDDTATLPGVFAVGCPGAGGYDAVFALVLGDECAAAVEAFWEHYTKMNVCPLLVREDPSGLLIQPPP”, the “soluble on expression in E. coli” value is given as “soluble”.

In the case of “MAHHHHHHMEDKLDFTKLRDPFDMDEINRKLQEKVADDDPVQKAMPDPMDPKFRAPLRCSACGAVIEHAVRLLRPIIERQSERAARSGGVLPADALPKEYEMVDIFENLCGEVGRLYGLEVEKDKKRPTLRFSKSFGVSRLQGAWMPSFLTSTCEGVLDVEGEEKLAAMILGVARSEAEAGRGKVISMNPDQGIVDKVREMVCTKWEESAKGCDAYGVAIDPRETDNDDGAEEAASDL”, the “soluble on expression in E. coli” value is on record as “not soluble”.

As for “MAHHHHHHMEDVRPVTSPLTEDTAYTRCLRGAKEAKERGNTAISDKNFKEASFQYKKALLFLSEYIPGDGGFSEDALIDMLARRRGVATPRDLSPGRKSELMDLYVTVMNNLAVADMRLCRFDKGVEHTTKVLNVPGQEKNRKALWRRAECHVQRGHIEEAEKDVDVLAACAEGNGQQSEEVVEQLRMKIKEKKKQLVREERAICKKMFEHGS”, the “soluble on expression in E. coli” value is reported as “soluble”.

Consider “MAHHHHHHMEEGAPTPAAPVGEDQEVAAAPATEEPASIMQVENTNFNWADDDIQFQIRQPQYAAEYPVSVLENLARNVTFKVPEDQNTMTSAIEALARERQAFEQMKRNHEDAMKSREVELNAQEATLQARERQLHANTETLAAERQQLILQQSQFRAQQAQAQAQSQAQAQTQSQPRTSSQTQSPAAQVSPSPAQAAQPAHAPQLQHQMPPPHQQPQPRSGNVYMGGGYGAQEWQPDQRTWGNEGAMGAPGFDMYQGAYPGSYAQRNYHMAGGHRGQMRSGNLPQQQFPGNRMQPMMPPPQQYSRSMAPLGAARQQQMDMNFGGRSQQSYNPAPNTGYPQRSAQW”, for which the “soluble on expression in E. coli” value is reported as “soluble”.

Regarding “MAHHHHHHMEKLREHSERPVPDMLVLPLTASLPQEVQSRVFEPTPPRCRKVVLATNVAETSITITNLYFVVDSGFCKQNVFDPKTGMEQLKIVPISQAQAQQRAGRAGRIGPGKCFRMYTELQFQMDMEPATVPDIQRSNLFHVVLQLKAMGINDLFALDLMDPPPQETLVSALQKLRYLEALDDDGLLTPLGGRMAQLPIDPSQSKTLLTAVDMGCCEPVLTIVSMLAVQKRGVFYRPRDQHEASDAAKRQFHQPEGDQITLLAVYDAWVANGLSEEWCKRNFLKHRILMEARDTREQLSDMLHKRHASIPHHNDDALTEVRRAITAGYFFNVAKRITDVAYATLAERREVYVHPSSCLRDAPPKYVLYNELQLTNREYMRELLVIEPQWLVELAPAFYSRPRKGKLTKEQRAERLNPILRAWENGSSWRISKLRRRK”, the “soluble on expression in E. coli” value is recorded as “not soluble”.

With “MAHHHHHHMENEALKEQEGEENKRILVLHKRYREGPFENRLRFECELEFVQSLSNIDYIKHLYENKYFSDKRFLNYLKYLNYWRTKPYIFYIHFPICLYVLEILNDGKIDEYFSKESSFNNFVYYLKLHWLFYSYQI”, the “soluble on expression in E. coli” value is listed as “not soluble”.

As for “MAHHHHHHMENILSKVDKIEPFDPKVKEQYNQFKYDVTKQAIESLRERIPQRIIYFNTLVNVNAEPGSILDVRDLDTKTYKYTSNQTEENARKKHKTSDHNVTEKKKDSIEMNTQNDINYEEKKIVIDENIIYTHYVPSHKQISAELEKIKAYSSELIEIIGNIKLWIQLNVPRIEDGNNFGVGIQEEAIQELARVEESAFNLYDAIVKYYMDRAKLATKVIKYPNVHDYQEAVQELDKKEWIHIKITIIDMRNNYIMLYDLLCKNWEKVVKPKNEDAHHRMTF”, the “soluble on expression in E. coli” value is “soluble”.

“MAHHHHHHMENINRVNKYDNPNEAIKNMVDKIINKKEMMKYFLDAQDIFEYHDVGKKGEVDITLFPKMARQLKQVYDIRDINNFKKEMKIKKIYKMDLQLFFTLLKRKILYSINNSNNNENDNSSFRQHYDILDMKKKQLLDVDELRTYLGLMGDKINPDDFNILLRYNLINNHRINKDDIVLDENKEIKNISFNAYVDMLTCYKYI”: the “soluble on expression in E. coli” value is on record as “not soluble”.

For the sequence “MAHHHHHHMEPSTLPYITRDVATEPPTTIAIVSCGGQPPELSGKDETMFAVTEDCVEPTKGWINREGKPLLTVCFMHSFGKCVGRTSSNPATCFQIHIKANVLNALRKHYTNPTRRFFTRTVKAMLSPELRRLLCMRAHKEFKVQYLEYRVSDIFPSTGLLQYEAAYRRWLFSDDTNAEHAGTITVLQCLQFSMTGSCDSSTDCPYIHADLKKAQARDPMLARALRDVSDANQGLPTVSIRVPELLPAGHSSTICPADATYATLTDGANLQSGMPSDPARDFTKVPAFTLVYGEGESGGRCVPLQMHQRESSSSSAGGHANSTYPLSHVPFINQDDPASEMTAAKSQPTSGKNEKASVSGKSGSGWVNNSNEGAGSINNHTGSCGSGTD”, the “soluble on expression in E. coli” value is “not soluble”.

In the case of “MAHHHHHHMETTAEEISAMLNENEHALIGELQGKYDFINFNEMKNYKEKKLHHELTLEVQKFINNKNVQVKDKFRLFYTLLSPLMSKLKKTIYAELLYIVTANFDANWTISYLKESEKNLENDKDAIIIYRCILILKYIELGDFKSCENEIENTKNLLQGVIGLNVVAHKFYNFAIMKYYNVLNKSDLFVKYALLYLAYTPLNDLDEADKIEIGTHICMHSIISEDVYNIGEIIQLPLINVCLKNNEQTNWLYQLIYIYNEGNIEVFNQVVHKYEENIKNSLLKDYKKNMIKKITLLALMDLAFKKKKQRSDISFEEIAQHCKVDVNEVEKMLITAKSKNILTCQIDEIQKSVKITWVKPRVLNNEKIFFMKESIDKWITHSKNLLTYMEDLSVELLIS”, the “soluble on expression in E. coli” value is reported as “not soluble”.

For the sequence “MAHHHHHHMEVREGEPPQSWTYKAVCMTLEKDDGVEQSGAPRLRLMVLTSEKGWPYSWRWKENKSTRDCHVNCEVDRVWRTVKGDLTKWFSRRAKNKLSPRRRLLVGTPWIGNSMAADSYLLYQLLHGDAEKLQVAVYSFGSQSFLFDKTTQAVREYVDTTKSKRVFFFWQL”, the “soluble on expression in E. coli” value is recorded as “soluble”.

Consider “MAHHHHHHMFKQRDNEYHPPMTVDPSGGGVTTSAGVFGEVGMGNVASPFLDGPAAVAGSRKRGRDIRSLDRFRAVVYGEDGFRRLHAMVARNPVLMYPPDGIEAARARVMVRKAELQSQLRSALGHREHNRNPADNGDDDVFALFEARRRAESDVHPATEGEEVPRQPASEHAPLPSSLASIRQDEELATYHHKQLDSYLRLLYEFNHATFVKLPMEDTLRLLSRCGKEAVAHIVEYETQVRLRRQSRIRDLNELRQEQAALEERRLAIDDAEQARLVQSAELRQAELDLELDNGVVKAEPPDDGSADEDVKVILETSSSSVHFASLPAGDSPEENMDGIVMAVEDEGIQYT”, for which the “soluble on expression in E. coli” value is “not soluble”.

Values taken from the DeepSol protein solubility set.
